Read-outs that look alike come from different tables or passages of the source. mPEG 20 kDa propionaldehyde = 20 kD methoxy-polyethylene glycol propionaldehyde, N-terminally conjugated
Key:
[1] = system: HSV-2; assay: HSV-2 inhibition of cytopathic effect assay in Vero cells; assay type: cell-based, Herpes Simplex Virus-2; conditions: CPE assay
Method: The assay involves the killing of Vero cells by the cytopathic HSV-2 virus and the inhibition of cell killing by IL-28 and EL-29. The Vero cells are propagated in Dulbecco's modified essential medium (DMEM) containing phenol red with 10% horse serum, 1% glutamine and 1% penicillin-streptomycin, while the CPE inhibition assays are performed in DMEM without phenol red with 2% FBS, 1% glutamine and 1% Pen-Strep. On the day preceding the assays, cells were trypsinized (1% trypsin-EDTA), washed, counted and plated out at 10^4 cells/well in a 96-well flat-bottom BioCoat® plates (Fisher Scientific, Pittsburgh, Pa.) in a volume of 100 μl/well. The next morning, the medium was removed and a pre-titered aliquot of virus was added to the cells. The amount of virus used is the maximum dilution that would yield complete cell killing (>80%) at the time of maximal CPE development. Cell viability is determined using a CellTiter 96® reagent (Promega) according to the manufacturer's protocol, using a Vmax plate reader (Molecular Devices, Sunnyvale, Calif.). Compounds are tested at six concentrations each, diluted in assay medium in a half-log series. Acyclovir was used as a positive control. […] The average background and drug color-corrected data for percent CPE reduction and percent cell viability at each concentration are determined relative to controls and the IC50 calculated relative to the TC50.

[2] = system: HCV replicon; conditions: IFNα at 10 IU/ml, replicon clones, compared to untreated control cell lines; cited from earlier work
[3] = system: 293 HEK cells overexpressing zcytor19; assay: Inhibition of ligand-induced ISRE-luciferase signaling by soluble receptors; assay type: cell-based, human; conditions: 10 ng/ml ligand, 10 micrograms/ml soluble receptor, 4-hour; relative to PBS alone
[4] = system: Adenovirus; assay type: cell-based
[5] = system: Parainfluenza virus; assay type: cell-based
[6] = system: Respiratory syncytial virus; assay type: cell-based
[7] = system: Rhino 2; assay type: cell-based, rhino virus; conditions: Rhino 2, KB
[8] = system: Rhino 9; assay type: cell-based, rhino virus; conditions: Rhino 9, HeLa
[9] = system: Coxsackie B4 virus; assay type: cell-based; conditions: KB
[10] = system: Influenza (type A [H3N2]); assay type: cell-based; conditions: Maden-Darby Canine Kidney
[11] = system: Influenza (type A [H3N2]); assay type: cell-based; conditions: Vero
[12] = system: Vaccinia virus; assay type: cell-based; conditions: Vero
[13] = system: West Nile virus; assay type: cell-based; conditions: Vero
[14] = system: Dengue virus; assay type: cell-based; conditions: Vero
[15] = system: Venezuelan equine encephalitis virus; assay type: cell-based; conditions: Vero
[16] = system: Pichinde virus; assay type: cell-based
[17] = system: Polio virus; assay type: cell-based; conditions: Vero
[18] = system: Adenovirus; assay type: cell-based; conditions: A549 cells, Neutral Red Assay
[19] = system: Parainfluenza virus; assay type: cell-based; conditions: MA-104 cells, Neutral Red Assay
[20] = system: Respiratory syncytial virus; assay type: cell-based; conditions: MA-104 cells, Neutral Red Assay
[21] = system: Rhino 2; assay type: cell-based, rhino virus; conditions: Rhino 2, KB cells, Neutral Red Assay
[22] = system: Rhino 9; assay type: cell-based, rhino virus; conditions: Rhino 9, HeLa cells, Neutral Red Assay
[23] = system: Coxsackie B4 virus; assay type: cell-based; conditions: KB cells, Neutral Red Assay
[24] = system: Influenza (type A [H3N2]); assay type: cell-based; conditions: Maden-Darby Canine Kidney cells, Neutral Red Assay
[25] = system: Influenza (type A [H3N2]); assay type: cell-based; conditions: Vero cells, Neutral Red Assay
[26] = system: Vaccinia virus; assay type: cell-based; conditions: Vero cells, Neutral Red Assay
[27] = system: West Nile virus; assay type: cell-based; conditions: Vero cells, Neutral Red Assay
[28] = system: Dengue virus; assay type: cell-based; conditions: Vero cells, Neutral Red Assay
[29] = system: Venezuelan equine encephalitis virus; assay type: cell-based; conditions: Vero cells, Neutral Red Assay
[30] = system: Pichinde virus; assay type: cell-based; remark: listed apart in the source
[31] = system: Polio virus; assay type: cell-based; conditions: Vero cells, Neutral Red Assay
[32] = system: AML-12 cells; assay: ISG induction in the mouse liver cell line AML-12 (real-time PCR); assay type: cell-based; conditions: AML-12, 20 ng/ml, 48 hour time point; mRNA relative to HPRT gene expression
Method: AML-12 cells were plated in 6-well plates in complete DMEM media at a concentration of 2×10^6 cells/well. […] As a control, cells were either stimulated with mouse IFNα (positive control) or unstimulated (negative). […] RNA was isolated from cell pellets using RNAEasy-kit® (Qiagen, Valencia, Calif.). RNA was treated with DNase (Millipore, Billerica, Mass.) to clean RNA of any contaminating DNA. cDNA was generated using Perkin-Elmer RT mix. ISG gene induction was evaluated by real-time PCR using primers and probes specific for mouse OAS, Pkr and Mx1. To obtain quantitative data, HPRT real-time PCR was duplexed with ISG PCR. A standard curve was obtained using known amounts of RNA from IFN-stimulated mouse PBLs. All data are shown as expression relative to internal HPRT expression.

[33] = system: liver, spleen and blood of mice; assay: ISG gene expression (OAS, Pkr, Mx1) in liver, spleen and blood of injected C57BL/6 mice (real-time PCR); assay type: in vivo, mouse; conditions: C57BL/6 mice, i.p or i.v, 10 μg-250 μg
Method: Mice were sacrificed at various time points (1 hr-48 hr). Spleens and livers were isolated from mice, and RNA was isolated. RNA was also isolated from the blood cells. The cells were pelleted and RNA isolated from pellets using RNAEasy®-kit (Qiagen). RNA was treated with DNase (Amicon) to rid RNA of any contaminating DNA. cDNA was generated using Perkin-Elmer RT mix (Perkin-Elmer). ISG gene induction was measured by real-time PCR using primers and probes specific for mouse OAS, Pkr and Mx1. To obtain quantitative data, HPRT real-time PCR was duplexed with ISG PCR. A standard curve was calculated using known amounts of IFN-stimulated mouse PBLs. All data are shown as expression relative to internal HPRT expression.

[34] = system: HHV-8; assay: HHV-8 replication in BCBL-1 cells (TaqMan PCR extracellular HHV-8 DNA; dye uptake TC50); assay type: cell-based, human herpesvirus-8; conditions: six days
Method: The therapeutic index (TI) is calculated as TC50/IC50.

[35] = system: Daudi cells; assay: Daudi cell proliferation (Alamar Blue); assay type: cell-based, human; conditions: 1000 ng/ml to 0.5 ng/ml, 72 h
Method: Human Daudi cells were suspended in RPMI+10% FBS at 50,000 cells/milliliter and 5000 cells were plated per well in a 96 well plate. […] IL-29-CEE was used at a concentration range of from 1000 ng/ml to 0.5 ng/ml. […] IFN-α2a was used at a concentration range of from 62 ng/ml to 0.03 ng/ml. Cells were incubated for 72 h at 37° C.

[36] = system: HCV replicon; assay: HCV Replicon model in AVA5 cells, HCV RNA by dot blot hybridization assay; conditions: three consecutive days of treatment

Molecule: IFNα
- antiviral activity against HSV-2 [1]: no antiviral activity
- reduction of the amount of HCV RNA [2]: 85%

B1: IL-28A: human IL-28A cytokine polypeptide (zcyto20), e.g. SEQ ID NO:18; CHO-derived in Examples 16 and 18 (protein, listed as Homo sapiens)
chain: MKLDMTGDCTPVLVLMAAVLTVTGAVPVARLHGALPDARGCHIAQFKSLSPQELQAFKRAKDALEESLLLKDCRCHSRLFPRTWDLRQLQVRERPMALEAELALTLKVLEATADTDPALVDVLDQPLHTLHHILSQFRACIQPQPTAGPRTRGRLHHWLYRLQEAPKKESPGCLEASVTFNLFRLLTRDLNCVASGDLCV
modifications: SIGNAL (1)...(25)
- Percent Inhibition of Ligand-induced ISRE Signaling by HuCRF2-4-Fc [3]: 80%
- Percent Inhibition of Ligand-induced ISRE Signaling by Huzcytor19-Fc [3]: 92%
- Percent Inhibition of Ligand-induced ISRE Signaling by Huzcytor19-Fc/huCRF2-4-Fc [3]: 16%
- Percent Inhibition of Ligand-induced ISRE Signaling by Muzcytor19-Ig [3]: 91%
- EC50 Visual ([4]; A549): >10 µg/mL
- IC50 Visual ([4]; A549, numerator of SI): >10 µg/mL
- EC50 Visual ([5]; MA-104): >10 µg/mL
- IC50 Visual ([5]; MA-104, numerator of SI): >10 µg/mL
- EC50 Visual ([6]; MA-104): >10 µg/mL
- IC50 Visual ([6]; MA-104, numerator of SI): >10 µg/mL
- EC50 Visual [7]: >10 µg/mL
- IC50 Visual ([7]; numerator of SI): >10 µg/mL
- EC50 Visual [8]: >10 µg/mL
- IC50 Visual ([8]; numerator of SI): >10 µg/mL
- EC50 Visual [9]: >10 µg/mL
- IC50 Visual ([9]; numerator of SI): >10 µg/mL
- EC50 Visual [10]: >10 µg/mL
- IC50 Visual ([10]; numerator of SI): >10 µg/mL
- EC50 Visual [11]: 0.1 µg/mL
- IC50 Visual ([11]; numerator of SI): >10 µg/mL
- EC50 Visual [12]: >10 µg/mL
- IC50 Visual ([12]; numerator of SI): >10 µg/mL
- EC50 Visual [13]: 0.01 ng/mL
- IC50 Visual ([13]; numerator of SI): >10 µg/mL
- EC50 Visual [14]: 0.01 µg/mL
- IC50 Visual ([14]; numerator of SI): >10 µg/mL
- EC50 Visual [15]: 0.01 µg/mL
- IC50 Visual ([15]; numerator of SI): >10 µg/mL
- EC50 Visual [16]: >10 µg/mL
- IC50 Visual [16]: >10 µg/mL
- EC50 Visual [17]: >10 µg/mL
- IC50 Visual ([17]; numerator of SI): >10 µg/mL
- EC50 NR [18]: >10 µg/mL
- IC50 NR [18]: >10 µg/mL
- EC50 NR [19]: >10 µg/mL
- IC50 NR [19]: >10 µg/mL
- EC50 NR [20]: >10 µg/mL
- IC50 NR [20]: >10 µg/mL
- EC50 NR [21]: >10 µg/mL
- IC50 NR [21]: >10 µg/mL
- EC50 NR [22]: 1.726 µg/mL
- IC50 NR [22]: >10 µg/mL
- EC50 NR [23]: >10 µg/mL
- IC50 NR [23]: >10 µg/mL
- EC50 NR [24]: >10 µg/mL
- IC50 NR [24]: >10 µg/mL
- EC50 NR [25]: 0.25 µg/mL
- IC50 NR [25]: >10 µg/mL
- EC50 NR [26]: >10 µg/mL
- IC50 NR [26]: >10 µg/mL
- EC50 NR [27]: 0.1 ng/mL
- IC50 NR [27]: >10 µg/mL
- EC50 NR [28]: 0.1 µg/mL
- IC50 NR [28]: >10 µg/mL
- EC50 NR [29]: 0.035 µg/mL
- IC50 NR [29]: >10 µg/mL
- EC50 NR [30]: >10 µg/mL
- IC50 NR [30]: >10 µg/mL
- EC50 NR [31]: >1.672 µg/mL
- IC50 NR [31]: >10 µg/mL
- Mx1 [32]: 0.06
- OAS [32]: 0.04
- PkR [32]: 0.02
- ISG gene expression (OAS, Pkr, Mx1) in the livers, spleen and blood of mice [33]: did not induce ISG gene expression
- IC50 (extracellular HHV-8 DNA) [34]: 1 µg/mL

B2: IL-29-CEE: IL-29 conjugated with glu tag (protein, UniProt Q8IU54 20-200, looked up)
Interferon lambda-1: GPVPTSKPTTTGKGCHIGRFKSLSPQELASFKKARDALEESLKLKNWSCSSPVFPGNWDLRLLQVRERPVALEAELALTLKVLEAAAGPALEDVLDQPLHTLHHILSQLQACIQPQPTAGPRPRGRLHHWLHRLQEAPKKESAGCLEASVTFNLFRLLTRDLKYVADGNLCLRTSTHPEST
modifications: Glu-Glu tag
notes: IL-29 conjugated with glu tag
- effect on proliferation of Daudi cells [35]: no significant effect

B3: PEG-rIL-29-d2-7 (conjugate)
chain: {mPEG 20 kDa propionaldehyde}-MKPTTTGKGCHIGRFKSLSPQELASFKKARDALEESLKLKNWSCSSPVFPGNWDLRLLQVRERPVALEAELALTLKVLEAAAGPALEDVLDQPLHTLHHILSQLQACIQPQPTAGPRPRGRLHHWLHRLQEAPKKESAGCLEASVTFNLFRLLTRDLKYVADGNLSLRTSTHPEST
- EC50 (HCV RNA, dot blot hybridization assay) [36]: 0.000516 µg/mL
